The source of these data is paper PMC11448365 (Genes to Cells, 2023).

The data set concerns the molecule itself. The experiment in a line: mass photometry.

B1: Irgb6-WT (wild-type Irgb6) (enzyme, mouse)
chain: MAWASSFDAFFKNFKRESKIISEYDITLIMTYIEENKLQKAVSVIEKVLRDIESAPLHIAVTGETGAGKSTFINTLRGVGHEEKGAAPTGAIETTMKRTPYPHPKLPNVTIWDLPGIGTTNFTPQNYLTEMKFGEYDFFIIISATRFKENDAQLAKAIAQMGMNFYFVRTKIDSDLDNEQKFKPKSFNKEEVLKNIKDYCSNHLQESLDSEPPVFLVSNVDISKYDFPKLETKLLQDLPAHKRHVFSLSLQSLTEATINYKRDSLKQKVFLEAMKAGALATIPLGGMISDILENLDETFNLYRSYFGLDDASLENIAQDLNMSVDDFKVHLRFPHLFAEHNDESLEDKLFKYIKHISSVTGGPVAAVTYYRMAYYLQNLFLDTAANDAIALLNSKALFEKKVGPYISEPPEYWEA
Regarding B1, the “stoichiometry N” value amounted to 2.
